The results in this text go back to patent publication US7303917B2, “Modification of pollen coat protein composition” (priority 1998, dated 2007).

Entries after “also recorded” stand apart in the source; their conditions may differ.

For series [1], the system named is Nicotiana tabacum cv. Delgold pollen. Briefly: In vitro germination of tobacco pollen. Format: cell-based. The settings on record: 42 μM papain, 71 μM cycloheximide; for Average Pollen Tube Length / Pollen Germination: 3 h culture, 25° C, 30 μM onchocystatin, 1 mg/ml casein; for effect on germination and pollen tube growth: 30 μM onchocystatin added to 42 μM papain. Here is the method:
Pollen from Nicotiana tabacum cv. Delgold was harvested by placing 5 dehiscent anthers in 1 ml of sterile Brewbaker and Kwack medium (Brewbaker, J. and Kwack, B. Amer. J. Bot. 50: 859-865 (1963)) containing various concentrations of cylcoheximide, or papain, or casein. The medium consisted of 10% w/v sucrose, 100 ppm H3BO3, 300 ppm Ca (NO3)2.4H2O, 200 ppm MgSO4.7H2O, and 100 ppm KNO3 with either 42 μM papain (twice crystallized, Sigma), with or without 30 μM recombinant onchocystatin, or 71 μM cycloheximide (Sigma), or 1 mg/ml casein. Anthers were vortexed in medium for 30 sec followed by centrifugation at 2,000 rpm for 2 min. Pollen was cultured in 50 μl drops in sterile 15×60 mm petri dishes at 25° C. The percentage of pollen grains germinated after 3 h of culture was measured and the average pollen tube length was recorded using an ocular micrometer on an inverted microscope.

The target of series [2] is papain (Carica papaya, UniProt P00784). Briefly: Protease inhibition assay (papain, Pyr-Phe-Leu-pNA). Format: biochemical. The settings on record: 20 ng papain, 2 to 3 h, read at 410 nm. The method, then:
(§1) Mature pollen was isolated by gently squeezing anthers from open flowers just prior to anther dehiscence in a microfuge tube with a pestle to release the pollen grains and suspend them in extraction buffer (100 mM HEPES pH 7.5, 10 mM KCl, 1 mM MgCl2, 1 mM EDTA, 1 mM DTT, 0.4 M sucrose, 0.01% Triton X-100). Pollen grains were filtered through […] mesh to remove debris, pelleted by centrifugation and frozen in liquid nitrogen. Pollen grains were ground to a fine powder, mixed with 1.4 μl per anther of extraction buffer (100 mM MES pH 6.5, 1% Triton X-100) and centrifuged at 4° C. for 5 min. Protein contents of extracts were determined using the BioRad Protein Assay.
(§2) For the protease inhibition assay, 5 μg of protein extract in 50 μl of extraction buffer described above was added to a microtiter plate followed by 20 ng of papain in 50 μl of 50 mM MES pH6.5 and incubated for 15 min at room temperature. Then 100 μl of substrate solution (1 mM Pyr-Phe-Leu-pNA (BACHEM) in activation buffer (30% DMSO, 1 mM EDTA,.1 mM DTT in 50 mM MES pH 6.5)) was added and the plate incubated in the dark at room temperature. The plate was read after 2 to 3 h of incubation on a plate reader at 410 nm. Results were calculated as the percentage of papain protease activity present in the mature pollen protein extract of the non-transformed control plant±standard deviation. […]

Series [3] is described as follows: Phage ELISA, no antigen coated in well. Format: binding. The method, then: (§3) A SacI and Nco I digest of the coding region of the protease inhibitor clone OV7 (Lustigman et al 1991), is ligated to the pCantab 5E vector (Pharmacia Biotech) Sac I and Nco I sites. This phagemid is transformed into E. coli TG1 cells by electroporation. An overnight culture of 10 μL of these cells are grown in 5 ml of SOBAG medium containing 10 μl of carbenicillin (50 mg/mL) at 28° C. The next day, 0.5 ml of this culture is used to inoculate 25 ml of 2×YT medium, containing 50 μl of carbenicillin (50 mg/ml) and 1.56 ml of 2M glucose and grown for 1.25 h at 37° C., with shaking at 250 rpm. At this point 62.5 μl of helper phage strain M13K07 ([…]) is added and the cells were incubated at 37° C. for 30 min with shaking at 150 rpm, and for another 30 min at 250 rpm. Recombinant phage particles are harvested by centrifugation and PEG precipitation. […]
(§4) After incubating the phage indicated (OV7-those displaying the cysteine protease inhibitor on their surface, M13-wild type or control phage not displaying any foreign protein, and a no phage control) for 2 h, the wells are washed in PBS with 0.5% Tween-20. Phage particles that bound to the antigens are detected with a 1:5000 dilution of anti-M13 antibody/HRP conjugate (Pharmacia). Detection is with the HRP substrate ABTS solution (Pharmacia) for 30 min and absorbance was measured at 410 nm.
In general terms: An ELISA detects its analyte on a solid surface through an enzyme-linked reagent.

Series [4] addresses T1, papain (Carica papaya, UniProt P00784).
T1 sequence (P00784 whole entry, looked up): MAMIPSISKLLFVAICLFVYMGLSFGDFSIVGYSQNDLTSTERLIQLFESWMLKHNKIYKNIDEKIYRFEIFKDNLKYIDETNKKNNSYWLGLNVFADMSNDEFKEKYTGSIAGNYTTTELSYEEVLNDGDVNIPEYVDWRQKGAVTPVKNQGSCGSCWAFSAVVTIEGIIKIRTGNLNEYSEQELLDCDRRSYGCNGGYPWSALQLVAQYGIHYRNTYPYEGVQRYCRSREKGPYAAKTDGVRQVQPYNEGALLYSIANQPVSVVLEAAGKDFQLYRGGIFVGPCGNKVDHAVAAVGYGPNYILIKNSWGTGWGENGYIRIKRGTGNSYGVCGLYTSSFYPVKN
The experiment in a line: Phage ELISA, wells coated with papain. Format: binding. Conditions: well coated with papain. The method, then:
as §3, §4

For the next series, the system named is anti-OV7 antibodies. Briefly: Phage ELISA, wells coated with anti-OV7 antibodies. Conditions: well coated with anti-OV7 antibodies; phage diluted 1 in 100. Format: binding, rabbit. Here is the method: as §3, §4
The test system of another series is trypsin. Briefly: Phage ELISA, wells coated with trypsin. Format: binding. The settings on record: well coated with trypsin. The method, then: as §3, §4
Series [5] deals with T1, papain. The experiment in a line: Protease inhibition assay (papain, Pyr-Phe-Leu-pNA). Format: biochemical. Conditions: 20 ng papain, 2 to 3 h, read at 410 nm. Here is the method: as §1, §2
The source holds these as a separate data set.

As for Casein, in series [1], the “Average Pollen Tube Length” value stood at 95 μm and the “Pollen Germination” value is recorded as 74%.
Consider `CC(C)C[C@H](NC(=O)[C@H]1O[C@@H]1C(=O)O)C(=O)NCCCCN=C(N)N` [E-64, reference compound], for which, on papain [2], the “percentage of papain protease activity of the non-transformed control plant extract” value came out at 3%.
Turning to `C[C@@H]1C[C@@H]([C@H](O)CC2CC(=O)NC(=O)C2)C(=O)[C@@H](C)C1` [Cycloheximide, cycloheximide], in series [1], the “effect on germination and pollen tube growth” value (from here on “effect”) is “inhibited the germination and elongation of pollen tubes”; the “Average Pollen Tube Length” value was 15 μm; the “Pollen Germination” value amounted to 27%.

B1: OV7: phage displaying the Onchocerca volvulus cysteine protease inhibitor OV7 on their surface as fusion to gene 3 coat protein (protein)
chain: AKNPSKMESKTGENQDRPVLLGGWEDRDPKDEEILELLPSILMKVNEQSNDEYHLMPIKLLKVSSQVVAGVKYKMDVQVARSQCKKSSNEKVDLTKCKKLEGHPEKVMTLEVWEKPWENFMRVEILGTKEV
modifications: left off: large carriers
As to B1, the Result entry in series [3] is reported as “very little OV7-plate”; in the series with papain [4], “binding specifically to papain”; with trypsin, “does not bind to trypsin; also recorded: no OV7-trypsin interaction”. The O.D.410 is 0.125 in series [3] (phage diluted 1 in 100), 0.788 with papain [4] (phage diluted 1 in 100), 0.451 in the series with anti-OV7 antibodies and 0.037 with trypsin (phage diluted 1 in 100).

B2: onchocystatin (OV7): recombinant cysteine protease inhibitor onchocystatin (OV7) from Onchocerca volvulus (protein)
chain: AKNPSKMESKTGENQDRPVLLGGWEDRDPKDEEILELLPSILMKVNEQSNDEYHLMPIKLLKVSSQVVAGVKYKMDVQVARSQCKKSSNEKVDLTKCKKLEGHPEKVMTLEVWEKPWENFMRVEILGTKEV
B2: the “effect” value in series [1] was “restored the germination and pollen tube growth”.

B3: OV7-GST: cysteine protease inhibitor OV7 conjugated to GST (protein)
chain: AKNPSKMESKTGENQDRPVLLGGWEDRDPKDEEILELLPSILMKVNEQSNDEYHLMPIKLLKVSSQVVAGVKYKMDVQVARSQCKKSSNEKVDLTKCKKLEGHPEKVMTLEVWEKPWENFMRVEILGTKEV
modifications: left off: a dimerising Fc or GST
Turning to B3, the “percentage of papain protease activity of the non-transformed control plant extract” value with papain [5] was determined as 2%.

B4: Papain: cysteine protease papain (twice crystallized, Sigma) (protein, UniProt P00784 134-345, looked up)
Papain: IPEYVDWRQKGAVTPVKNQGSCGSCWAFSAVVTIEGIIKIRTGNLNEYSEQELLDCDRRSYGCNGGYPWSALQLVAQYGIHYRNTYPYEGVQRYCRSREKGPYAAKTDGVRQVQPYNEGALLYSIANQPVSVVLEAAGKDFQLYRGGIFVGPCGNKVDHAVAAVGYGPNYILIKNSWGTGWGENGYIRIKRGTGNSYGVCGLYTSSFYPVKN
Regarding B4, in series [1], the “effect” value was “inhibited the germination and stunted the growth of pollen tubes”; the “Average Pollen Tube Length” value was determined as 28 μm; the “Pollen Germination” value worked out at 56%.
